The values that follow come from PMC8631645, “Avidity observed between a bivalent inhibitor and an enzyme monomer with a single active site” (PLoS ONE, 2021).

As usually defined, the stoichiometry N is a count of units in the complex or per binding partner.

One assay has as its target T1, mesotrypsin (human, UniProt P35030 81-304).
T1 construct: also called recombinant human mesotrypsin
T1 sequence (looked up): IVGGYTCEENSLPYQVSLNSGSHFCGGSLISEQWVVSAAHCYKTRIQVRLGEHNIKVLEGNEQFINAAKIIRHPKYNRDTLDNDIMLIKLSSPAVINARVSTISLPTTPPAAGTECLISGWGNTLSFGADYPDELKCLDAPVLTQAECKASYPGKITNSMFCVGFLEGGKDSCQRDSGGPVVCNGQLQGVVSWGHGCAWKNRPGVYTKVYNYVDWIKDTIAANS
As to the kind of experiment: enzyme inhibition kinetics; mesotrypsin 0.25 nM, Z-GPR-pNA 5-250 uM, APPI monomer 0-400 nM or dimer inhibitor units 0-96 nM, 37 C, 100 mM Tris, 1 mM CaCl2, pH 8.0; global fit to the classic competitive inhibition equation; for the dimer an apparent constant of a single inhibitory unit. The note with it: both partners purified.

In another assay the target is bovine trypsin (bovine). As to the kind of experiment: enzyme activity titration; pre-titrated bovine trypsin (9 uL, 30 uM) mixed with six dilutions of APPI monomer or dimer; residual activity on 100 uM L-BAPA, 100 mM Tris, 5 mM CaCl2, pH 8.0, 37 C; compared with concentration by absorbance at 280 nm. The note with it: both partners purified.

B1: dimeric amyloid precursor protein inhibitor (APPI homodimer, two APPI units in tandem joined by a GGGGSx3 linker) (other)
chain: EVCSEQAETGPCRAMISRWYFDVTEGKCAPFFYGGCGGNRNNFDTEEYCMAVCGSAMGGGGSGGGGSGGGGSEVCSEQAETGPCRAMISRWYFDVTEGKCAPFFYGGCGGNRNNFDTEEYCMAVCGSAM
modifications: three disulfides per Kunitz unit. Limits from the printed primers (text says 3L33 residues 4-55 = 290-341). GGGGSx3 linker kept between units. Possible restriction-site residues at the junction and …
On to B1, for which, in the assay with mesotrypsin, the Ki is 36.1 nM. Moreover, the “stoichiometry N” value with bovine trypsin is 2 trypsin per APPI dimer.
